Measurements published in patent US20240131207A1, “NUCLIDE-LABELED INHIBITORY PEPTIDE, AND PREPARATION METHOD THEREFOR AND USE THEREOF” (SUZHOU UNIVERSITY, priority 2022, published 2024).
No end group written: not given here. *: point of attachment. DOTA = O=C(O)CN1CCN(CC(=O)O)CCN(CC(=O)*)CCN(CC(=O)O)CC1

Tests used:
B16F10 cells [1] = assay: Growth inhibitory effect of 177Lu-AP1 on B16F10 cells (CCK8); assay type: cell-based, mice; conditions: radioactive dose 600 μCi/mL, incubated 24 hours, then 24 hours in normal medium
Description: • (1) The B16F10 cells of mice in the logarithmic growth phase were taken and digested by using pancreatin, and the cell concentration was adjusted to 4×10^4 cells/mL; the cells were plated in a 96-well plate at a volume of 100 μL per well, the cell concentration was 4×10^3 cells per well, and the cells were incubated overnight in an incubator at 37° C./5% CO2; • (2) the medium was replaced for each group of cells, 100 μL of culture solution with a specified dosage was added, and ^177LuCl3 and ^177Lu-AP1 with the same dosage concentration were added into two 96-well plates, wherein dosage concentrations were 0, 10, 100, 200, 300, 400, 500 and 600 μCi/mL; after 24 h, the normal culture medium was used to continue culturing; • (3) a culture medium with 10 μL of CCK8 solution (10%) was added at 24 h and 48 h after the normal culture medium was used, and the culture was continued in the incubator for 1 h; • (4) after 1 h, the absorbance at 450 nm of each well was measured using a microplate reader. The relative survival rate of the cells was calculated according to the measured OD value. Cell viability=(material added group−blank group)/(control group−blank group)×100%.

B16F10 cells [2] = conditions: 0-100 μg/mL
Description: (§1) • (1) The skin melanoma B16F10 cells of mice in the logarithmic growth phase were taken and digested by using 0.25% pancreatin, and the cell concentration was adjusted to 6×10^4/mL; the cells were plated in a 96-well plate at a volume of 100 μL per well, the cell concentration was 6×10^3 cells per well, and the cells were incubated overnight in an incubator at 37° C./5% CO2; • (2) the medium was replaced for each group of cells, and 100 μL of a culture solution with a specified concentration was added, wherein the concentration of each dose was 0, 0.5, 1, 5, 10, 20, 50 and 100 μg/mL; after 24 h, a DMEM medium (containing 10% of North American fetal bovine serum and 1% of double antibody) was used, and the culture was continued; • (3) 10 μL of CCK8 solution (10%) was added at 0 h and 24 h after the normal culture medium was used, and the culture was continued in the incubator for 1 h; • (4) after 1 h, the absorbance at 450 nm of each well was measured using a microplate reader. The relative survival rate of the cells was calculated according to the measured OD value. Cell viability=(material added group−blank group)/(control group−blank group)×100%.

in vitro = conditions: mouse, B16F10 cells
Description: as §1

[3] = Stability analysis of 68Ga/177Lu labeled product in PBS by HPLC; assay type: physicochemical; conditions: within 24 hours, stability data determined with 177Lu
Description: • (1) The HPLC mobile phases were water and acetonitrile (each containing 0.1% TFA), and the gradient was set from 20% to 50% acetonitrile concentration over a period of 30 minutes. • (2) The injection analysis of ^68Ga/^177Lu-AP1 in PBS at different time points (0, 1.5, 3.5, and 24 h) under the same condition is shown in FIG. 2 (identification and purification of ^68Ga/^177Lu-labeled AP1 product) (The radiation peak of the product is mainly the peak of the polypeptide. Since the half-life of ^68Ga is only 68 minutes, and the amount of radiation injected is very small, the stability data is determined by ^177Lu (6.71 days) with a longer half-life).

in vivo = conditions: mouse, tumor, iv, 20 uCi per mouse, total radioactivity, after 5.5 hours, B16F10 tumor-bearing mouse
Description: (§2) • (1) The ^68Ga-AP1 imaging probe was used for screening a high expression group and a low expression group of tumor ASF1a, and 20 μCi of ^68Ga-AP1 was injected into the tail vein of each mouse. After 0.5, 1.5, 3.5 and 5.5 h after injection, each important organ was dissected and separated. Each organ weight was measured and calculated as % ID/g=organ radioactivity count/(organ weight×source count)×100% for 3 mice per time point. • (2) Mice were sacrificed at 10 min, 20 min, 30 min, 1.5 h, 3.5 h, 5.5 h respectively after tail vein injection of ^68Ga-AP1, the radioactivity of the organs in the blood of the mice was measured, n=3 was measured at each time point, and the mean value of each time point was taken, and an intravascular two-compartment model was selected to fit hemodynamic parameters using PKSover software.

[4] = B16F10 tumor-bearing mouse, tail vein injection
Description: as §2

[5] = mice, tail vein injection, two-compartment model
Description: as §2

B16F10 cells [6] = tested on: B16F10 cells
Description: Safety of radiolabeled ^68Ga-AP1 imaging probe • (1) The B16F10 cells of mice in the logarithmic growth phase were taken and digested by using 0.25% pancreatin, and the cell concentration was adjusted to 6×10^4 cells/mL; the cells were plated in a 96-well plate at a volume of 100 μL per well, the cell concentration was 6×10^3 cells per well, and the cells were incubated overnight in an incubator at 37° C./5% CO2; • (2) the medium was replaced for each group of cells, 100 μL of a culture solution with a specified concentration was added, and the radioactive doses were taken as 0, 1, 2.5, 10, 25, 50, 100, and 200 μCi/mL; after 12 h, the normal culture medium was used and 10 μL of CCK8 solution (10%) was added, and the culture was continued in an incubator for 1 h; • (3) after 1 h, the absorbance at 450 nm of each well was measured using a microplate reader. The relative survival rate of the cells was calculated according to the measured OD value. Cell viability=(material added group−blank group)/(control group−blank group)×100%.

B16F10 cells [7] = assay: Binding and inhibition assay of B16F10 cells to 68Ga-AP1; assay type: cell-based, mice; conditions: 0.11 MBq/mL 68Ga-AP1 with AP1 0-360 μg/mL, 1 h
Description: • (1) When the cells grew to more than 90%, the cells were digested with 0.25% pancreatin, the cell concentration was adjusted to 1×10^5 cells/mL, the cells were plated in a 24-well plate, and 0.5 mL of culture medium was added to each well. […] 0.5 mL of 0.11 MBq/mL ^68Ga-AP1 was the source count T. • (5) The radioactivity of the liquid (^68Ga-AP1) detected and collected by the radioimmunotube of each concentration of AP1 was denoted as count B. • (6) The cellular uptake was B/T×100%, and the half inhibitory concentrations were fitted based on different concentrations of AP1. FIGS. 5A-5B show a competitive binding and inhibition experiment between ^68GaAP1 and AP1.

In the case of [Cl][177Lu]([Cl])[Cl] [^177LuCl3], the “cell survival rate after 24 hours” value (B16F10 cells [1]) is reported as 82.19±16.69%.

With “{DOTA}-YGRKKRRQRRRCASTEEKWARLARRIAGAGGVTLDGFGGCA (cysteines drawn unpaired) [AP1]” the “biocompatibility of the polypeptide” value (B16F10 cells [2]) was “good biocompatibility”, the viability at 24 h, 100 µg/mL (in vitro) was 94.7 ± 11% and the viability at 48 h, 100 µg/mL (in vitro) was 103 ± 5.76%.

With “{DOTA}-YGRKKRRQRRRCASTEEKWARLARRIAGAGGVTLDGFGGCA-OH (N-terminus assumed; cysteines drawn unpaired) [^68Ga-AP1, metal not drawn]” the “stability of the labeled product” value [3] was “good stability”, the tissue uptake at 5.5 h (in vivo; tumor % ID/g in tumor high-intake group, high-intake group) was 18.9 ± 0.248 %ID/g and the tissue uptake at 5.5 h (in vivo; tumor % ID/g in tumor low-intake group, low-intake group) was 5.24 ± 1.73 %ID/g. The “route of metabolism (in vivo biodistribution)” value [4] was “mainly metabolized through liver and kidney”, the “half-discharge time in the blood” value [5] was 2.1933 h and the “mean residence time (MRT) in vivo” value [5] was 3.1643 h. For the same compound, the “biocompatibility of the PET/CT imaging probe” value (B16F10 cells [6]; 0-200 μCi/mL) was “good biocompatibility”, the cell survival rate (B16F10 cells [6]; radioactivity at most 200 μCi/mL) was 95.31±9.05% and the “uptake in B16F10 cells inhibited by AP1” value (B16F10 cells [7]) was “can be specifically uptaken”.
